The source of these data is US20190127480A1 (Regeneron, published 2019).

Assay [1] has as its target T1, Soluble heterodimeric CD3 protein (hCD3-epsilon/hCD3-delta) with either a human Fc tag (hFcΔAdp/hFc) or a … (human, UniProt P07766 23-126; P04234 22-105).
T1 construct: also called hCD3ε/δ; not shown: Fc tag: human (hFcΔAdp/hFc)
Put plainly: SPR Biacore 25C antibody-capture. The procedure: (§1) Measurements were conducted on a T200 Biacore™ instrument.
(§2) Soluble heterodimeric CD3 protein (hCD3-epsilon/hCD3-delta; SEQ ID NOs:1652/1653) with either a human Fc tag (hFcΔAdp/hFc; SEQ ID NOs:1683/1684) or a mouse Fc tag (mFcΔAdp/mFc; SEQ ID NOs:1685/1686) was injected over the antibody captured surface and the binding response was recorded. Heterodimeric CD3 protein was purified using the method described in Davis et al. (US2010/0331527).
(§3) Kinetic association (kₐ) and dissociation (kd) rate constants were determined by processing and fitting the data to a 1:1 binding model using Scrubber 2.0 curve fitting software. Binding dissociation equilibrium constants (KD) and dissociative half-lives (t₁₁₂) were calculated from the kinetic rate constants as: KD (M)=kd/kₐ; and t_{1/2} (min)=(ln 2/(60*kd). NT=not tested; NB=no binding observed.

Assay [2] concerns the target T1, Soluble heterodimeric CD3 protein …. Put plainly: SPR Biacore 25C antigen-capture. As for the experimental part: as §1
In the antigen-capture format, heterodimeric CD3 protein was captured using a rabbit anti-mouse Fc or mouse anti-human Fc and the respective antibodies were injected over the captured antigen.
as §3

The target of assay [3] is T2, Soluble heterodimeric CD3 protein (hCD3-epsilon/hCD3-delta) with a human Fc tag (hFcΔAdp/hFc) or a mouse Fc … (human, UniProt P07766 23-126; P04234 22-105).
T2 construct: also called hCD3ε/δ; not shown: Fc tag: human (hFcΔAdp/hFc); which tag was used in Ta
T2 sequence (P07766 23-126 limits assumed, stated change not applied, chain 1 of 2): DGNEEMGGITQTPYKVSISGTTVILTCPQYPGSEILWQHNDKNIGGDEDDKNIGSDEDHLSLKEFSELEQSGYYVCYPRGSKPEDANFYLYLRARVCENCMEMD
T2 sequence (P04234 22-105 limits assumed, stated change not applied, chain 2 of 2): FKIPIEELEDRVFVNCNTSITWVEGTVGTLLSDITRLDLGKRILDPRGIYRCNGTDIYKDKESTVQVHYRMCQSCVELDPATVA
Kind of assay: SPR Biacore, 25 C, antibody-capture format. The procedure:
as §1, §2, §3

T1 sequence (P07766 23-126 limits assumed, stated change not applied, chain 1 of 2): as the sequence (P07766 23-126 limits assumed, stated change not applied, chain 1 of 2) above
T1 sequence (P04234 22-105 limits assumed, stated change not applied, chain 2 of 2): as the sequence (P04234 22-105 limits assumed, stated change not applied, chain 2 of 2) above

B1: H1H5755B (antibody, human IgG1, V domains shown)
VH: EVQLVESGGGVVQPGRSLRLSCAASGFTFSNYGMHWVRQAPGKGLEWVTVILHDGSYKYYADSVKGRFTISRDNSKNTLHLQMNSLRTEDTAVYYCAKGPMFRGVPYNHYYGMDVWGQGTTVTVSS
VL: DIQMTQSPSSLSASVGDRVTITCRASQGIRNDLGWYQQKPGKAPKRLIYAASSLQSGVSSRFSGSGSGTEFTLTISSLQPEDFATYYCLQHNSYPYTFGQGTKVEIKR
notes: H1H: human IgG1 Fc; divalent
Regarding B1, in assay [1], the Kd worked out at 57.5 nM, the “T½” value came out at 24 min, the koff was 0.000472 s⁻¹ and the kon stood at 8210 M⁻¹ s⁻¹. In addition, in assay [2], binding was characterised by a dissociation constant (Kd) of 0.936 nM, the “T½” value was 57 min, the koff was found to be 0.000201 s⁻¹ and the kon was found to be 215000 M⁻¹ s⁻¹.

B2: H1H5757B (antibody, human IgG1, V domains shown)
VH: EVQLVESGGGVVQPGRSLRLSCAASGFTFSSYGMHWVRQAPGKGLEWVTVILHDGSNRYSADSVKGRFTISRDNSKNTLYLQMNILRVEDTAVYYCTKGAMVRGVPYNHYYGMDVWGQGTTVTVSS
VL: DIQMTQSPSSLSASVGDRVTITCRASQGIRNDLGWYQQKPGKAPKRLIYAASILQSGVPSRFSGSGSGTEFTLTISSLQPEDFATYYCLQHNSYPYTFGQGTKLEIKR
notes: H1H: human IgG1 Fc; divalent
As to B2, in assay [1], binding was put at a Kd of 118 nM, the “T½” value came out at 15 min, the koff was 0.000785 s⁻¹ and the kon came out at 6630 M⁻¹ s⁻¹. Further, in assay [2], the Kd worked out at 1.64 nM, the “T½” value worked out at 39 min, the koff was 0.000295 s⁻¹ and the kon came out at 180000 M⁻¹ s⁻¹.

B3: H2M3547N (antibody, V domains shown)
VH: EAQLVESGGGLVQPGRSLRLSCTTSGFTFDDYTMHWVRQAPGKGLEWISDISWNGGTKGYADSVKGRFTISRDNAKNSLYLQMDSLRGEDTALYYCVKDKSGYGHFYFGLDVWGQGTTVTVSS
VL: DIQMTQSPSSLTASVGDRVTFTCRASQSISRHLSWYQQKPGKAPKLLIYAASSLESGVPSRFSGSGSGTDFTLTISSLHPEDFATYYCQQSYSNPPITFGQGTRLEIK
notes: Hybridoma antibody, human variable regions, mouse IgG2 Fc
With B3, in assay [3], binding was characterised by a dissociation constant (Kd) of 15.9 nM, the “T½” value turned out to be 33 min, the koff was found to be 0.000347 s⁻¹ and the kon was 21800 M⁻¹ s⁻¹.

B4: H2M3541N (antibody, V domains shown)
VH: EVQLVESGGGLVRPGRSLRLSCAASGFTFDDYTMHWVRQAPGKGLEWVSDISWNSGTIGYADSVKGRFTISRDNAKNSLYLQMNSLRPEDTALYYCAKDMSGYAHYYYYGMDVWGQGTTVTVSS
VL: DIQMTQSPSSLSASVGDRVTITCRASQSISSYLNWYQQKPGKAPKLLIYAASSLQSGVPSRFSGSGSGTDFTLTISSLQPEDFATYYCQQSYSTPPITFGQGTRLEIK
notes: as for B3
Take B4: in assay [3], binding was put at a Kd of 189 nM, the “T½” value worked out at 9 min, the koff was 0.00135 s⁻¹ and the kon is 7100 M⁻¹ s⁻¹.

B5: H2M3563N (antibody, V domains shown)
VH: EVHLVESGGGLVQPGRSLRLSCAASGFTFDDYTMHWVRQAPGKGLEWVSDISWNSGSIGYADSVKGRFTVSRDNAKNSLYLQMNSLRGEDTALYYCAKDMSGYGHYGKYGMDVWGQGTTVTVSS
VL: DIQMTQSPSSLSASVGDRVTITCRASQSIRSYLNWYQQKPGKVPKLLIYAASSLQSGVPSRFSGSGSGTDFTLTINSLQPDDFATYYCQQTYSNPPITFGQGTRLEIK
notes: as for B3
As for B5, in assay [3], the Kd is 3.66 nM, the “T½” value turned out to be 97 min, the koff stood at 0.000119 s⁻¹ and the kon was determined as 32400 M⁻¹ s⁻¹.

B6: H2M3543N (antibody, V domains shown)
VH: EVQLVESGGGLVQPGRSLRLSCAASGFTFDDYTMHWVRQAPGKGLEWVSDISWNSGSIGYADSVKGRFTVSRDNAKNSLYLQMNSLRGEDTALYYCAKDMSGYAHYGYYGMDVWGQGTTVTVSS
VL: DIQMTQSPSSLSASVGDRVTITCRASQSIRNYLNWYQQKPGKVPKLLIYAASSLQSGVPSRFSGSGSGTDFTLTISSLQPEDFATYYCQQSYSNPPITFGQGTRLEIK
notes: as for B3
As for B6, in assay [3], binding was put at a Kd of 30 nM, the “T½” value was 51 min, the koff was determined as 0.000226 s⁻¹ and the kon is 7530 M⁻¹ s⁻¹.

B7: H1H5788P (antibody, V domains shown)
VH: EVQLVESGGGLVQPGRSLRLSCAASGFTFDDYTMHWVRQAPGKGLEWVSGISWNSGSIGYADSVKGRFTISRDNAKNSLYLQMNSLRAEDTALFYCAKDQSGYGHYYYGMDVWGQGTTVTVSS
VL: EIVMTQSPATLSVSPGERATLSCRASQSVSSNLAWYQQKPGQAPRLLIYGASTRATDIPARFSGSGSGTEFTLTISSLQSEDFAVYHCQQYNNWPLTFGGGTKVEIK
notes: H1H: human IgG1 Fc; divalent
B7: in assay [1], binding was put at a Kd of 101 nM, the “T½” value is 40 min, the koff worked out at 0.000291 s⁻¹ and the kon was 2880 M⁻¹ s⁻¹. In addition, in assay [2], the Kd is 2.33 nM, the “T½” value is 70 min, the koff is 0.000164 s⁻¹ and the kon amounted to 70600 M⁻¹ s⁻¹.

B8: H1H2712N (antibody, human IgG1, V domains shown)
VH: EVQLVESGGGLVQPGGSLRLSCAATGFTFDDFTMHWVRQAPGKGLEWVSGISWNSGSIGYVDSVKGRFTISRDNAKNSLYLQMNSLRAEDTALYYCAKDNSGYGYYYYGMDVWGQGTTVTVSS
VL: EIVMTQSPATLSVSPGERATLSCRASHSVSRNSAWYQQKPGQAPRLLIYGASTRATGIPARFSGSGSGTEFTLTISSLQSEDFAIYYCQQYNNWPLTFGGGTKVEIK
notes: H1H: human IgG1 Fc; divalent
Regarding B8, in assay [1], binding was put at a Kd of 88.2 nM, the “T½” value is 43 min, the koff worked out at 0.00027 s⁻¹ and the on-rate (kon) is 3060 M⁻¹ s⁻¹. For the same molecule, in assay [2], the Kd turned out to be 0.971 nM, the “T½” value is 133 min, the koff turned out to be 8.68e-05 s⁻¹ and the kon amounted to 89300 M⁻¹ s⁻¹.

B9: H2M3548N (antibody, V domains shown)
VH: EVQLVESGGGLVQPGRSLRLSCAASGFKFADYAMHWVRQAPGKGLEWVSEISWNSGSIGYVDSVKGRFTISRDNAKNSLYLQMNSLRAEDTALYYCVKDKSGYGHYYIGMDVWGQGTTVIVSS
VL: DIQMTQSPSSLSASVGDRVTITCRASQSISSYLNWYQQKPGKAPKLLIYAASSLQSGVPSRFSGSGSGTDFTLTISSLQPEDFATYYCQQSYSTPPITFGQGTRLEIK
notes: as for B3
B9: in assay [3], the Kd was 130 nM, the “T½” value was found to be 2 min, the koff was 0.00504 s⁻¹ and the kon turned out to be 38700 M⁻¹ s⁻¹.

B10: H1H5756B (antibody, human IgG1, V domains shown)
VH: EVQLVESGGGVVQPGRSLRLSCTASGFPFSRYGMHWVRQAPGKGLEWVTFIWYDGSNKYYADSAKGRFTITRDNSKNTVYLQMDSLRADDTAVYYCVRDQAALYYFDSWGQGTLVTVSS
VL: DIQMTQSPSSVSASVGDRVTITCRASQGISRWLAWYQQKPGKAPKLLISAASSLQSGVPSRFSGSGSGTDFTLTISGLQPEDFATYYCQKANSFPFTFGPGTKLEIKR
notes: H1H: human IgG1 Fc; divalent
On to B10, for which, in assay [1], the Kd was found to be 32.6 nM, the “T½” value was 43 min, the koff came out at 0.000266 s⁻¹ and the kon is 8150 M⁻¹ s⁻¹. For the same molecule, in assay [2], the Kd stood at 0.767 nM, the “T½” value was determined as 105 min, the koff came to 0.000111 s⁻¹ and the kon came out at 144000 M⁻¹ s⁻¹.

B11: H1H5752P (antibody, human IgG1, V domains shown)
VH: QVQLVESGGGVVQPGRSLRPSCAASGFSFRDYGMHWVRQAPGKGLEWMAHIWYNGKNKYYADSVKGRFTISRDNSKNTLYLQMNSLRPEDTAVYYCARDGVSARGTPFDYWGQGTLVTVSS
VL: ETTLTQSPAFMSAAPGDKVSISCIASQYIDDDVNWYQQKPGETAIFIIQEASTLVPGISPRFSGSGYGTHFTLTINNIDSEDAAFYFCLQHDNFPYTFGQGTKLEIK
notes: H1H: human IgG1 Fc; divalent
For the molecule B11, in assay [1], the binding result is “no binding”.

B12: H1M3544N (antibody, V domains shown)
VH: EVQLVESGGGLVQPGRSLRLSCAASGFTFDDYTMHWVRQVPGKGLEWVSGISWNSGSLAYADSVKGRFTISRDNAKNSLYLQMNSLHPEDTALYYCVKDGSGYGHYSYYGLDVWGQGTTVTVSS
VL: not shown
notes: Hybridoma antibody, human variable regions, mouse IgG1 Fc
Consider B12, for which the “T½” value in assay [3] turned out to be 82 min.

B13: H1H5782P (antibody, human IgG1, V domains shown)
VH: EVQLVESGGGLVQPGRSLRLSCAASGFTFDDYAMHWVRQAPGKGLEWVSGISWNSGSKDYADSVKGRFTISRDNTRNSLFLQMNSLRTEDTALYYCAKDKSGYGSFYYGMDVWGQGTTVTVSS
VL: not shown
notes: H1H: human IgG1 Fc; divalent
For the molecule B13, the binding result in assay [1] is given as “no binding”.
